Experiment [1] concerns the target human melanocortin-4 receptor (human) (UniProt P32245).
The target of experiment [2] is human melanocortin-3 receptor (human) (UniProt P41968).
In experiment [3] the target is human melanocortin-1 receptor (human) (UniProt Q01726).
In experiment [4] the target is human melanocortin-5 receptor (human) (UniProt P33032).
Sequence of UniProt P33032 (P33032 whole entry): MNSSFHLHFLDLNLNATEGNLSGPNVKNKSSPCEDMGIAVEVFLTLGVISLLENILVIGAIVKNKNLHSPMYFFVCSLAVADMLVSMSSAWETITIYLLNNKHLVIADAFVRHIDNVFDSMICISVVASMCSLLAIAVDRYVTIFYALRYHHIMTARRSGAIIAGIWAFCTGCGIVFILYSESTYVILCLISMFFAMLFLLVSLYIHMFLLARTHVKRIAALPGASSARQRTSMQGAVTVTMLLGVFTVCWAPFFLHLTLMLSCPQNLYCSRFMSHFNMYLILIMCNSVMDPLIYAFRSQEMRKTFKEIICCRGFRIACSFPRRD

Sequence of UniProt P41968 (P41968 whole entry): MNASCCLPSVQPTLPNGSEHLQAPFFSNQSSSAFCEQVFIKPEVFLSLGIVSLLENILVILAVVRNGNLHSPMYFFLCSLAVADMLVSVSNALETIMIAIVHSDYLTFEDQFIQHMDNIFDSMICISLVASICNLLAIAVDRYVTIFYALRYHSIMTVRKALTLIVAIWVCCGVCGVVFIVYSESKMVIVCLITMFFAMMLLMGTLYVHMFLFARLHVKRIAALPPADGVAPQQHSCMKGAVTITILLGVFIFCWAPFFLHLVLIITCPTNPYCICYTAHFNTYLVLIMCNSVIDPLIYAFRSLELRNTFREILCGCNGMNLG
Sequence of UniProt Q01726 (Q01726 whole entry): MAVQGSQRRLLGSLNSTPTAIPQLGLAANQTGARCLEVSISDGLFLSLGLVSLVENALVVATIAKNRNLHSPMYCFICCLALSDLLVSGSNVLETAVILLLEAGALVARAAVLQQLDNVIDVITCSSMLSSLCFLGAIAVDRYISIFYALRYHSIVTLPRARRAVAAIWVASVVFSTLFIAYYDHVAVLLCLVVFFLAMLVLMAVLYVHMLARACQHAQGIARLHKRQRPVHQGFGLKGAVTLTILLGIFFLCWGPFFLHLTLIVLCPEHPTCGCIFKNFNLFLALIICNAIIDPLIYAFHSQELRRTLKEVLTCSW
Sequence of UniProt P32245 (P32245 whole entry): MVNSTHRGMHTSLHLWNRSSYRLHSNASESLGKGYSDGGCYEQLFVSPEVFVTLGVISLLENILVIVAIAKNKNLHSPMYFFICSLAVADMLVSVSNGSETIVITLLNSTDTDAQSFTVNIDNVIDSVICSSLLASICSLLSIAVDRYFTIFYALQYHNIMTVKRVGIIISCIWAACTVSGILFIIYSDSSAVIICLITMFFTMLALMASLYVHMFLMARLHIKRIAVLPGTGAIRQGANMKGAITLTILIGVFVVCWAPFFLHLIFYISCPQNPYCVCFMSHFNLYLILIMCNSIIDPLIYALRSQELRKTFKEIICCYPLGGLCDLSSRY

For the substance “α-melanocyte-stimulating hormone (ligand)”, the EC90 of the cAMP response (split-luciferase cAMP sensor) in experiment [1] stood at 70 nM; in experiment [2] it was 30 nM; in experiment [3] it was 10 nM; in experiment [4], 500 nM.

These data come from paper doi:10.1101/2022.01.03.474807.
